Measured values from patent publication US20250145729A1 (DENALI THERAPEUTICS, published 2025).

T1: circularly permuted cyno TfR apical domain (cynomolgus monkey)
T1 construct: same design as the human construct; also called cyTfR Apical Domain; cynomolgus TfR apical domain
T1 chain: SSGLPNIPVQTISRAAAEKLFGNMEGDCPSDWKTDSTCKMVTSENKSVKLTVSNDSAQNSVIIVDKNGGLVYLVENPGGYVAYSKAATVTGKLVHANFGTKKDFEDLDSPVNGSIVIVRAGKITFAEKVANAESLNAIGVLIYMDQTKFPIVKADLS

T2: circularly permuted human TfR apical domain (human)
T2 construct: TfR residues 326-379 stand N-terminal to 194-296, loop 297-325 deleted; also called huTfR Apical Domain
T2 chain: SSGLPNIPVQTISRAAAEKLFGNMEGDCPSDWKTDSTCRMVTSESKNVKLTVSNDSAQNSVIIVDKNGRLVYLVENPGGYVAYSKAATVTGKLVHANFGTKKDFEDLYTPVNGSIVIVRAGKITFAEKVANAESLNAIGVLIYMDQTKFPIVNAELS

T3: human CD98hc (human, UniProt P08195 109-529)
T3 construct: The construct used on the Biacore is not described; also called CD98 heavy chain; 4F2 heavy chain
T3 sequence: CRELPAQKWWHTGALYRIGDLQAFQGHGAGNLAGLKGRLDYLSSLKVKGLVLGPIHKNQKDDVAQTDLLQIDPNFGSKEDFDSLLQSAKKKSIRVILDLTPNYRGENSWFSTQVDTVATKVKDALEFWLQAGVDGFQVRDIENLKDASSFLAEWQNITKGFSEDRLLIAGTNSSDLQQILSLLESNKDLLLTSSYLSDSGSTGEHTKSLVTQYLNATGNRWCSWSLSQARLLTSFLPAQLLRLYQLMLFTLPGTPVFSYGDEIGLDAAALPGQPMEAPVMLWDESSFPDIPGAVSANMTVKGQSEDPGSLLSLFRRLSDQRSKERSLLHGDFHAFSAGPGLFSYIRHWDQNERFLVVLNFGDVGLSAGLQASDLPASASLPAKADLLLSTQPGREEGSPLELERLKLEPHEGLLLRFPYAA

T4: human CD98hc (human, UniProt P08195 109-529)
T4 construct: also called huCD98hc; CD98 heavy chain
T4 sequence: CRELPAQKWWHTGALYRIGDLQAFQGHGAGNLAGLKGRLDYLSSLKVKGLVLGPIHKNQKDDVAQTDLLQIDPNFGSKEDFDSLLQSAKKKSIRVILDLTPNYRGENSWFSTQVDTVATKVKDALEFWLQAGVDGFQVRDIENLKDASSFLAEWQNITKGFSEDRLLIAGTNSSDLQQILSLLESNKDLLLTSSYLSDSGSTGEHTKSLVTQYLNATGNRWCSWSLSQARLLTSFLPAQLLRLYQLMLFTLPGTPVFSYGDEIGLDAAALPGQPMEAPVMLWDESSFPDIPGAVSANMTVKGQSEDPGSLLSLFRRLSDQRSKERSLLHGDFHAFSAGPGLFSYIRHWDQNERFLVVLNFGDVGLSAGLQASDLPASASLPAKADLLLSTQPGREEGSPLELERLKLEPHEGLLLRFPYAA


Target: T1, circularly permuted cyno TfR apical …
Experiment: method not named for this table (Biacore elsewhere)

| Kd | Binder |
| --- | --- |
| 10000 nM | 42.2.7.2 mono (Fc fusion, M428 kept here) chain 1: APEAAGGPSVFLFPPKPKDTLMISRTPEVTCVVVDVSHEDPEVKFNWYVDGVEVHNAKTKPREEQYNSTYRVVSVLTVLHQDWLNGKEYKCKVSNKALGAPIEKTISKAKGQPREPQVYTLPPSRDELTKNQVSLWCLVKGFYPSDIAVEWFSDGSKETNYKTTPPVLDSDGSFFLYSKLTVDKSRWQQGNLFACEVMHEALEGHYTYKLLSLSPGK chain 2: APEAAGGPSVFLFPPKPKDTLMISRTPEVTCVVVDVSHEDPEVKFNWYVDGVEVHNAKTKPREEQYNSTYRVVSVLTVLHQDWLNGKEYKCKVSNKALGAPIEKTISKAKGQPREPQVYTLPPSRDELTKNQVSLSCAVKGFYPSDIAVEWESNGQPENNYKTTPPVLDSDGSFFLVSKLTVDKSRWQQGNVFSCSVMHEALHNHYTQKSLSLSPGK |
| 1100 nM | 42.2.19 mono (Fc fusion, knob+P329G+LALA with TfR site, hole+P329G+LALA without) chain 1: APEAAGGPSVFLFPPKPKDTLMISRTPEVTCVVVDVSHEDPEVKFNWYVDGVEVHNAKTKPREEQYNSTYRVVSVLTVLHQDWLNGKEYKCKVSNKALGAPIEKTISKAKGQPREPQVYTLPPSRDELTKNQVSLWCLVKGFYPSDIAVEWFYDDSKLTNYKTTPPVLDSDGSFFLYSKLTVDKSRWQPRGLFACEVMHEALHNHYTYKLLGESPGK chain 2: APEAAGGPSVFLFPPKPKDTLMISRTPEVTCVVVDVSHEDPEVKFNWYVDGVEVHNAKTKPREEQYNSTYRVVSVLTVLHQDWLNGKEYKCKVSNKALGAPIEKTISKAKGQPREPQVYTLPPSRDELTKNQVSLSCAVKGFYPSDIAVEWESNGQPENNYKTTPPVLDSDGSFFLVSKLTVDKSRWQQGNVFSCSVMHEALHNHYTQKSLSLSPGK |

Target: T2, circularly permuted human TfR apical …
Experiment: as above

| Kd | Binder |
| --- | --- |
| 162 nM | 42.2.7.2 mono (Fc fusion, M428 kept here) chain 1: APEAAGGPSVFLFPPKPKDTLMISRTPEVTCVVVDVSHEDPEVKFNWYVDGVEVHNAKTKPREEQYNSTYRVVSVLTVLHQDWLNGKEYKCKVSNKALGAPIEKTISKAKGQPREPQVYTLPPSRDELTKNQVSLWCLVKGFYPSDIAVEWFSDGSKETNYKTTPPVLDSDGSFFLYSKLTVDKSRWQQGNLFACEVMHEALEGHYTYKLLSLSPGK chain 2: APEAAGGPSVFLFPPKPKDTLMISRTPEVTCVVVDVSHEDPEVKFNWYVDGVEVHNAKTKPREEQYNSTYRVVSVLTVLHQDWLNGKEYKCKVSNKALGAPIEKTISKAKGQPREPQVYTLPPSRDELTKNQVSLSCAVKGFYPSDIAVEWESNGQPENNYKTTPPVLDSDGSFFLVSKLTVDKSRWQQGNVFSCSVMHEALHNHYTQKSLSLSPGK |
| 79 nM | 42.2.19 mono (Fc fusion, knob+P329G+LALA with TfR site, hole+P329G+LALA without) chain 1: APEAAGGPSVFLFPPKPKDTLMISRTPEVTCVVVDVSHEDPEVKFNWYVDGVEVHNAKTKPREEQYNSTYRVVSVLTVLHQDWLNGKEYKCKVSNKALGAPIEKTISKAKGQPREPQVYTLPPSRDELTKNQVSLWCLVKGFYPSDIAVEWFYDDSKLTNYKTTPPVLDSDGSFFLYSKLTVDKSRWQPRGLFACEVMHEALHNHYTYKLLGESPGK chain 2: APEAAGGPSVFLFPPKPKDTLMISRTPEVTCVVVDVSHEDPEVKFNWYVDGVEVHNAKTKPREEQYNSTYRVVSVLTVLHQDWLNGKEYKCKVSNKALGAPIEKTISKAKGQPREPQVYTLPPSRDELTKNQVSLSCAVKGFYPSDIAVEWESNGQPENNYKTTPPVLDSDGSFFLVSKLTVDKSRWQQGNVFSCSVMHEALHNHYTQKSLSLSPGK |

Target: T3, human CD98hc
Experiment: SPR (Biacore); format not stated
Method: A second round of affinity maturation using phage display was performed to increase the affinity of the LLB1 family to CD98hc (Table 11). The backbone of the library was the clone LLB1-3. Library LLB1-AM3 expands the library positions from the original clone using NHK or ARY. Library LLB1-AM4 expands the libraries and includes a mixture of residues that were found previously at those positions in the LLB1 family. The library was assembled using Kunkel mutagenesis and screened to human CD98hc. […] The format was anti-BACE1 Fabs having full effector function and in a bivalent format (i.e., no knob and hole mutations). Cell binding of the clones was also tested in HeLa cells for huCD98hc binding, CHO:cyCD98hc cells for cyno binding, and CHO cells as a negative control.

| Kd | Binder |
| --- | --- |
| 175 nM | LLB1-3-16-2 (Fc fusion) APELLGGPSVFLFPPKPKDTLMISRTPEVTCVVVDVSHEDPEVKFNWYVDGVEVHNAKTKPREEQYNSTYRVVSVLTVLHQDWLNGKEYKCKVSNKALPAPIEKTISKAKGQPREPQVYTLPPSRDELTKNQVSLTCLVKGFYPSDIAVEWRTYKPYETNYKTTPPVLDSDGSFFLYSKLTVDKSRWQQGDIFVCDVMHEALHNHFTIKKLSLSPGK |
| 160 nM | LLB1-3-25-2 (Fc fusion, a difference, if any, lies outside the printed positions) APELLGGPSVFLFPPKPKDTLMISRTPEVTCVVVDVSHEDPEVKFNWYVDGVEVHNAKTKPREEQYNSTYRVVSVLTVLHQDWLNGKEYKCKVSNKALPAPIEKTISKAKGQPREPQVYTLPPSRDELTKNQVSLTCLVKGFYPSDIAVEWRTYKPYETNYKTTPPVLDSDGSFFLYSKLTVDKSRWQQGDIFVCDVMHEALHNHFTIKKLSLSPGK |
| 42 nM | LLB1-3-25-1 (Fc fusion, a difference, if any, lies outside the printed positions) APELLGGPSVFLFPPKPKDTLMISRTPEVTCVVVDVSHEDPEVKFNWYVDGVEVHNAKTKPREEQYNSTYRVVSVLTVLHQDWLNGKEYKCKVSNKALPAPIEKTISKAKGQPREPQVYTLPPSRDELTKNQVSLTCLVKGFYPSDIAVEWRTYKPYETNYKTTPPVLDSDGSFFLYSKLTVDKSRWQQGDIFVCDVLHEALHNHFTIKKLSLSPGK |
| 32 nM | LLB1-3-16 (Fc fusion, also called Clone 1-3-16; LLB1-1-3-16) APELLGGPSVFLFPPKPKDTLMISRTPEVTCVVVDVSHEDPEVKFNWYVDGVEVHNAKTKPREEQYNSTYRVVSVLTVLHQDWLNGKEYKCKVSNKALPAPIEKTISKAKGQPREPQVYTLPPSRDELTKNQVSLTCLVKGFYPSDIAVEWRTYKPYETNYKTTPPVLDSDGSFFLYSKLTVDKSRWQQGDIFVCDVLHEALHNHFTIKKLSLSPGK |
| 470 nM | LLB1-3-10-1 (Fc fusion) APELLGGPSVFLFPPKPKDTLMISRTPEVTCVVVDVSHEDPEVKFNWYVDGVEVHNAKTKPREEQYNSTYRVVSVLTVLHQDWLNGKEYKCKVSNKALPAPIEKTISKAKGQPREPQVYTLPPSRDELTKNQVSLTCLVKGFYPSDIAVEWRSYKPYENNYKTTPPVLDSDGSFFLYSKLTVDKSRWQQGNIFVCDVLHEALHNHYTIKKLSLSPGK |
| 1200 nM | LLB1-3-31-2 (Fc fusion) APELLGGPSVFLFPPKPKDTLMISRTPEVTCVVVDVSHEDPEVKFNWYVDGVEVHNAKTKPREEQYNSTYRVVSVLTVLHQDWLNGKEYKCKVSNKALPAPIEKTISKAKGQPREPQVYTLPPSRDELTKNQVSLTCLVKGFYPSDIAVEWRTYKPYETNYKTTPPVLDSDGSFFLYSKLTVDKSRWQQGDIFVCDVMHEALHNHFTIKSLSLSPGK |
| 880 nM | LLB1-3-4-1 (Fc fusion) APELLGGPSVFLFPPKPKDTLMISRTPEVTCVVVDVSHEDPEVKFNWYVDGVEVHNAKTKPREEQYNSTYRVVSVLTVLHQDWLNGKEYKCKVSNKALPAPIEKTISKAKGQPREPQVYTLPPSRDELTKNQVSLTCLVKGFYPSDIAVEWRTYKPYENNYKTTPPVLDSDGSFFLYSKLTVDKSRWQQGNIFVCDVMHEALHNHYTIKKLSLSPGK |
| 330 nM | LLB1-3-14-1 (Fc fusion) APELLGGPSVFLFPPKPKDTLMISRTPEVTCVVVDVSHEDPEVKFNWYVDGVEVHNAKTKPREEQYNSTYRVVSVLTVLHQDWLNGKEYKCKVSNKALPAPIEKTISKAKGQPREPQVYTLPPSRDELTKNQVSLTCLVKGFYPSDIAVEWRSYKPYENNYKTTPPVLDSDGSFFLYSKLTVDKSRWQQGDIFVCDVLHEALHNHYTIKKLSLSPGK |
| 1000 nM | LLB1-3 D380E (Fc fusion) APELLGGPSVFLFPPKPKDTLMISRTPEVTCVVVDVSHEDPEVKFNWYVDGVEVHNAKTKPREEQYNSTYRVVSVLTVLHQDWLNGKEYKCKVSNKALPAPIEKTISKAKGQPREPQVYTLPPSRDELTKNQVSLTCLVKGFYPSDIAVEWRSYKPYENNYKTTPPVLDSDGSFFLYSKLTVDKSRWQQGNIFVCDVMHEALHNHYTIKKLSLSPGK |

Target: T4, human CD98hc
Experiment: affinity as listed in study design table; method not given there

| Kd | Binder |
| --- | --- |
| 550 nM | Clone 33: LLB2-10-8-d6 bivalent, non-binding Fabs (Fc fusion, bivalent; effector positive) APELLGGPSVFLFPPKPKDTLMISRTPEVTCVVVDVSHEDPEVKFNWYVDGVEVHNAKTKPREEQYNSTYRVVSVLTVLHQDWLNGKEYKCKVSNKALPAPIEKTISKAKGQPREPQVYTLPPSRDELTKNQVSLTCLVKGFYPSDIAVLWNSRFVLENNYKTTPPVLDSDGSFFLYSKLTVDKSRWQQGNVFACNVYHEALHNHYTFKNLALSPGK |
| 550 nM | Clone 38: LLB2-10-8-d6 bivalent, non-binding Fabs, effector negative (Fc fusion) APEAAGGPSVFLFPPKPKDTLMISRTPEVTCVVVDVSHEDPEVKFNWYVDGVEVHNAKTKPREEQYNSTYRVVSVLTVLHQDWLNGKEYKCKVSNKALGAPIEKTISKAKGQPREPQVYTLPPSRDELTKNQVSLTCLVKGFYPSDIAVLWNSRFVLENNYKTTPPVLDSDGSFFLYSKLTVDKSRWQQGNVFACNVYHEALHNHYTFKNLALSPGK |
| 100 to 200 nM | Clone 36: LLB2-10-8 bivalent, non-binding Fabs, effector negative (Fc fusion) APEAAGGPSVFLFPPKPKDTLMISRTPEVTCVVVDVSHEDPEVKFNWYVDGVEVHNAKTKPREEQYNSTYRVVSVLTVLHQDWLNGKEYKCKVSNKALGAPIEKTISKAKGQPREPQVYTLPPSRDELTKNQVSLTCLVKGFYPSDIAVLWNSRFVLENNYKTTPPVLDSDGSFFLYSKLTVDKSRWQQGEIFACNVYHEALHNHYTFKNLALSPGK |
